Results: IntAct's records for PubMed 17627274

B1: High osmolarity signaling protein SHO1 (Saccharomyces cerevisiae), P40073 (parent)
chain: MSISSKIRPTPRKPSRMATDHSFKMKKFYADPFAISSISLAIVSWVIAIGGSISSASTNESFPRFTWWGIVYQFLIICSLMLFYCFDLVDHYRIFITTSIAVAFVYNTNSATNLVYADGPKKAAASAGVILLSIINLIWILYYGGDNASPTNRWIDSFSIKGIRPSPLENSLHRARRRGNRNTTPYQNNVYNDAIRDSGYATQFDGYPQQQPSHTNYVSSTALAGFENTQPNTSEAVNLHLNTLQQRINSASNAKETNDNSNNQTNTNIGNTFDTDFSNGNTETTMGDTLGLYSDIGDDNFIYKAKALYPYDADDDDAYEISFEQNEILQVSDIEGRWWKARRANGETGIIPSNYVQLIDGPEEMHR
B2: High osmolarity signaling protein SHO1 (Saccharomyces cerevisiae), P40073 (parent)
chain: B1 chain
partner: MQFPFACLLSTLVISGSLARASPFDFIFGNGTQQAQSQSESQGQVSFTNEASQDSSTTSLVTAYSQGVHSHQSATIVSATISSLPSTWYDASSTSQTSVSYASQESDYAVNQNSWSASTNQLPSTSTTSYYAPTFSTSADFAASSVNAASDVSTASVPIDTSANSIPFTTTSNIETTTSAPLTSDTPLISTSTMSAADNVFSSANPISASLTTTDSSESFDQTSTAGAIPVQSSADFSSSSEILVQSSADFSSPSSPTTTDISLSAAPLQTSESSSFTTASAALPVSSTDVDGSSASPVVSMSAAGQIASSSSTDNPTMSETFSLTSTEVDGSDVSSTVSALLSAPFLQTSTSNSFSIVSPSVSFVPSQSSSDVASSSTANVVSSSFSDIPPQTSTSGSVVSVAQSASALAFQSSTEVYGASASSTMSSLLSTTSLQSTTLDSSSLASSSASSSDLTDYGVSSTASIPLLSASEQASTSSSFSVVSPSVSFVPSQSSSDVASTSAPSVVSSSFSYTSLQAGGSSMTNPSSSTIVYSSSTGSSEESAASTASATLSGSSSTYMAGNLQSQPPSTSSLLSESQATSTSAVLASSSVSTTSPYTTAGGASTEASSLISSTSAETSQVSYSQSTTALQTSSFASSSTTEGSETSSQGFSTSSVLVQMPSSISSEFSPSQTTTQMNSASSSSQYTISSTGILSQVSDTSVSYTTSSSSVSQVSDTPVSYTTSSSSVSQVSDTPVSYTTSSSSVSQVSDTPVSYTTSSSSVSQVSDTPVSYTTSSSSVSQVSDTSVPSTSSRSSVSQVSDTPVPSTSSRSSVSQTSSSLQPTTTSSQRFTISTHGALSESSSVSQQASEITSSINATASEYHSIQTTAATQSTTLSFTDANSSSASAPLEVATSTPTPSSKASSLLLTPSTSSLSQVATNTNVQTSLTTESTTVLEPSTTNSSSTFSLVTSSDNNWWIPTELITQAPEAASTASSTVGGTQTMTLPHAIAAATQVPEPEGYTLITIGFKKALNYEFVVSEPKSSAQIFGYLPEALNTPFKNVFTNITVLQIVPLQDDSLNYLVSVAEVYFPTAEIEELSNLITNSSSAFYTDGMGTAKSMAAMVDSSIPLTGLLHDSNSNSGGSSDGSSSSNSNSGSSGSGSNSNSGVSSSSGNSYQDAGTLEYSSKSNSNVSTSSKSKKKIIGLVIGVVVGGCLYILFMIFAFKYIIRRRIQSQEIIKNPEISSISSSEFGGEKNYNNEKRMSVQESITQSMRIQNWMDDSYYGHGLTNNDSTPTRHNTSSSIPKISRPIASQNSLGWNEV

Variants of: B1
Conditions: with hkr1_yeast HKR1, P41809
Sequence of hkr1_yeast HKR1, P41809 (P41809 whole entry): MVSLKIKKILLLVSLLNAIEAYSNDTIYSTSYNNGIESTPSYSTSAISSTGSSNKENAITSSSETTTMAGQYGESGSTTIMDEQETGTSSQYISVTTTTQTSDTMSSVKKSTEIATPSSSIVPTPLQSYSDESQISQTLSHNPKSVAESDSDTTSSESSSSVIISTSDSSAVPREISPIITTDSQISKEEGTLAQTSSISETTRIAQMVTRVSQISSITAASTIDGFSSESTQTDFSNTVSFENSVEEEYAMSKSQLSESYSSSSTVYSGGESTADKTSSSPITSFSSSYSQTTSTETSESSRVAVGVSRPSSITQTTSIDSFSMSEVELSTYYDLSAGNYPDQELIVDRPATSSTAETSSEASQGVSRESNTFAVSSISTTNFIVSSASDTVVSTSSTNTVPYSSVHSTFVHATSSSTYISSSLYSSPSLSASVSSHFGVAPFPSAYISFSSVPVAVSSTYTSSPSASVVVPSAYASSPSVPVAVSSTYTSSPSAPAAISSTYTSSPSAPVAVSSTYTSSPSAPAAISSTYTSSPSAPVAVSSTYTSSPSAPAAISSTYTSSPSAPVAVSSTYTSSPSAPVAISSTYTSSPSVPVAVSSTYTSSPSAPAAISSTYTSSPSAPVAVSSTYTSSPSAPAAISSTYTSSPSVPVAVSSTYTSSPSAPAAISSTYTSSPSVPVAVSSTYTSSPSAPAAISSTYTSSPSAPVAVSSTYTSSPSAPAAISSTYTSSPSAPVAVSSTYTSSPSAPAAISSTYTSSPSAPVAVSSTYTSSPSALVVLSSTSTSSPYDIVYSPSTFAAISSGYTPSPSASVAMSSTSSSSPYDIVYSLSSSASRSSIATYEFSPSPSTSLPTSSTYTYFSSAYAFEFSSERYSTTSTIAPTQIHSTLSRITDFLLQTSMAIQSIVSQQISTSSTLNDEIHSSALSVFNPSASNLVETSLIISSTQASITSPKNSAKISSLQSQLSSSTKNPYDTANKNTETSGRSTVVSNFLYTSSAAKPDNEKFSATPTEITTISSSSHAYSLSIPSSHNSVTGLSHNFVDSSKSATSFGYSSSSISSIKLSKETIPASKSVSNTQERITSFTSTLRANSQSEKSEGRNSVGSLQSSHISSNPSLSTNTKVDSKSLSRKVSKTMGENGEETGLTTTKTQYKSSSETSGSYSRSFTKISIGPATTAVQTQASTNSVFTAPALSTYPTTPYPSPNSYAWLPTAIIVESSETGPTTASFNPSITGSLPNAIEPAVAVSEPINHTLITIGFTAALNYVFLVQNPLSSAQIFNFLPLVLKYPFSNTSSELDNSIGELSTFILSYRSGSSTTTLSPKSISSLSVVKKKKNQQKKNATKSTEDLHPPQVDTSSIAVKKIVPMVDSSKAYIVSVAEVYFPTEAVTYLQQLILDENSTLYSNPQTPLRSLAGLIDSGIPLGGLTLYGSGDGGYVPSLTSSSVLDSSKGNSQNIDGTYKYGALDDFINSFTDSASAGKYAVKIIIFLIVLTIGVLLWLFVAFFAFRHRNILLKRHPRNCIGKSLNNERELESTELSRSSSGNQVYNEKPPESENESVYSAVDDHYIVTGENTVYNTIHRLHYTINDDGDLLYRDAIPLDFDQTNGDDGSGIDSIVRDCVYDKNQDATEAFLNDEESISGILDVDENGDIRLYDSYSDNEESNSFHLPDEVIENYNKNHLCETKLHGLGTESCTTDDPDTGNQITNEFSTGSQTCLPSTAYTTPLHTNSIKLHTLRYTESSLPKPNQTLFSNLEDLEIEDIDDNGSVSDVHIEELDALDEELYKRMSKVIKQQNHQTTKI

Variant	effect of a mutation on the interaction
T108I	decreasing interaction
Y106H	decreasing interaction

Variants of: B2
Conditions: with msb2_yeast MSB2, P32334

Variant	effect of a mutation on the interaction
Y106H	decreasing interaction
T108I	decreasing interaction
